# Data reported in IntAct's records for PubMed 19716822.
# Target: srk2e_arath SRK2E (UniProt Q940H6)
# Sequence (Q940H6 whole entry): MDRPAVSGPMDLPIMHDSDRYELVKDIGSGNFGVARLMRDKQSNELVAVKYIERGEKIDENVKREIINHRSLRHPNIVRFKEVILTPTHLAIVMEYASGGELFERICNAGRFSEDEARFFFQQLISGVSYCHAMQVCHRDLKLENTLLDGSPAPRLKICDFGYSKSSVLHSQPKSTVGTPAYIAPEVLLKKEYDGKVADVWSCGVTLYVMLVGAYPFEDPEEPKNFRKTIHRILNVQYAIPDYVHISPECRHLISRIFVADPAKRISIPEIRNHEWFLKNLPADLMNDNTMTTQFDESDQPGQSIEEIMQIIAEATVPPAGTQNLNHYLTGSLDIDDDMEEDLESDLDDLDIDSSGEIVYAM
substance,measurement,value
"Respiratory burst oxidase homolog protein F (Arabidopsis thaliana (Mouse-ear cress)), O48538 S174A",effect of a mutation on the interaction,decreasing interaction
